Assay results: FireProtDB (doi:10.1093/protein/15.6.455)

B1: Cytochrome c-552 wild type, P15452 (protein)
chain: MKKFLLVAVVGLAGITFANEQLAKQKGCMACHDLKAKKVGPAYADVAKKYAGRKDAVDYLAGKIKKGGSGVWGSVPMPPQNVTDAEAKQLAQWILSIK
B2: Cytochrome c-551 wild type, P00099 (protein)
chain: MKPYALLSLLATGTLLAQGAWAEDPEVLFKNKGCVACHAIDTKMVGPAYKDVAAKFAGQAGAEAELAQRIKNGSQGVWGPIPMPPNAVSDDEAQTLAKWVLSQK

Conditions: pH 3.6, Thermal, DSC, sodium acetate 50 mM, reversible: yes, whole UniProt chain shown; for heat capacity change of unfolding / unfolding enthalpy (calorimetric): 62.6 °C
[1] = Hydrogenobacter thermophilus (strain DSM 6534 / IAM 12695 / TK-6)
[2] = Pseudomonas aeruginosa (strain ATCC 15692 / DSM 22644 / CIP 104116 / JCM 14847 / LMG 12228 / 1C / PRS 101 / PAO1)

| Protein | heat capacity change of unfolding [1] [kcal/mol/K] | unfolding enthalpy (calorimetric) [1] [kcal/mol] | Tm [1] [°C] | heat capacity change of unfolding [2] [kcal/mol/K] | unfolding enthalpy (calorimetric) [2] [kcal/mol] | Tm [2] [°C] |
| --- | --- | --- | --- | --- | --- | --- |
| B1 | 0.54 | 69.5 | 94 | – | – | – |
| B2 | – | – | – | 0.72 | 60.8 | 62.6 |
